Assay results reported in patent US20080199424A1.

Molecular target: MART-126-35/HLA-A2.1 tetramer (human)
Assay: equilibrium tetramer staining at 0.1-25 nM, flow cytometry, Scatchard plot (KD=1/slope)

- Kd: 4 to 6 nM
Substance: MART-1 TCR native PBMC (T cells obtained by leukapheresis from the MART-1 TCR donor patient)
